Consider 1 molecule from publication PMC11717359, “A new pipeline SPICE identifies novel JUN-IKZF1 composite elements”.

This series addresses IKZF1 (Ikaros), recombinant (Homo sapiens, UniProt Q13422 1-519). The series is described as follows: EMSA; 1 ug IKZF1 alone; EMSA per LI-COR kit protocol (829-07910), 100 nM IR700 probe, 4-12% TBE gel in 0.5x TBE; binding buffer, pH and temperature not stated. The note with it: protein: commercial; chain copies: 2; label: IRDye 700. For orientation: Mobility shift assays separate free from complexed probe on a gel.

Chain of IKZF1 (Ikaros), recombinant (Q13422 whole entry): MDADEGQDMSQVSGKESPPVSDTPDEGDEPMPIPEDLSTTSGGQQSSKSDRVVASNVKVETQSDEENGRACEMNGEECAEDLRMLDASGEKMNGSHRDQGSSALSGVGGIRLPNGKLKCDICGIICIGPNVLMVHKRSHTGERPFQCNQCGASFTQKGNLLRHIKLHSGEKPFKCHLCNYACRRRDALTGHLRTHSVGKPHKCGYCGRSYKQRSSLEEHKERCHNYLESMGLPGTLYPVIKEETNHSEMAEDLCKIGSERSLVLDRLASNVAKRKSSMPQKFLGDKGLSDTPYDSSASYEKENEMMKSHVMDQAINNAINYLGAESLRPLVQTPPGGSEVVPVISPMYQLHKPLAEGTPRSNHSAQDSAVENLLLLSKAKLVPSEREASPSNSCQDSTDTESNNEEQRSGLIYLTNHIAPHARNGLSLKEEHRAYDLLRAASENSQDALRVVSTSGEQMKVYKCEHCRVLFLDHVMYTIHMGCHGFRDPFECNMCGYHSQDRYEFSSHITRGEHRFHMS

B1: IL10 CNS9 WT probe (dsDNA)
DNA 1: GAGGTTGCAGTTTCGTTGTGAGTCAGGCCTGCTGA
DNA 2: TCAGCAGGCCTGACTCACAACGAAACTGCAACCTC
Regarding B1, the binding result is on record as “no binding”.
